Key:
[1] = molecular target: HuD N-terminal fragment (1-117) in which the 8 N and D residues in the 36-amino acid flexible region were mutated to Q and E (UniProt P26378)
[2] = molecular target: HuD RRM1 lacking the N-terminal 36 amino acids (37-117 aa) (UniProt P26378)
[3] = molecular target: in vitro isoaspartyl-converted recombinant HuD N-terminal fragment (amino acids 1-117, wildtype) (UniProt P26378)
[4] = molecular target: native recombinant HuD N-terminal fragment (amino acids 1-117, wildtype, day 0, not converted) (UniProt P26378)
[5] = tested on: synapsin (isoaspartyl-converted, positive control)

Sequence of HuD N-terminal fragment (1-117) in which the 8 N and D residues in the 36-amino acid flexible region were mutated to Q and E (P26378 other isoform, or with tags, fused parts or gaps, change not shown): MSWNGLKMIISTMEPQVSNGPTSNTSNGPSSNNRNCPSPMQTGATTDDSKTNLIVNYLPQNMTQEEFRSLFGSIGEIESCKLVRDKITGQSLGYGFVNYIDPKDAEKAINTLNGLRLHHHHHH
Sequence of native recombinant HuD N-terminal fragment (amino acids 1-117, wildtype, day 0, not converted) (P26378 other isoform, or with tags, fused parts or gaps): as the sequence (P26378 other isoform, or with tags, fused parts or gaps, change not shown) above
Sequence of in vitro isoaspartyl-converted recombinant HuD N-terminal fragment (amino acids 1-117, wildtype) (P26378 whole entry, looked up, the tested form may be a part): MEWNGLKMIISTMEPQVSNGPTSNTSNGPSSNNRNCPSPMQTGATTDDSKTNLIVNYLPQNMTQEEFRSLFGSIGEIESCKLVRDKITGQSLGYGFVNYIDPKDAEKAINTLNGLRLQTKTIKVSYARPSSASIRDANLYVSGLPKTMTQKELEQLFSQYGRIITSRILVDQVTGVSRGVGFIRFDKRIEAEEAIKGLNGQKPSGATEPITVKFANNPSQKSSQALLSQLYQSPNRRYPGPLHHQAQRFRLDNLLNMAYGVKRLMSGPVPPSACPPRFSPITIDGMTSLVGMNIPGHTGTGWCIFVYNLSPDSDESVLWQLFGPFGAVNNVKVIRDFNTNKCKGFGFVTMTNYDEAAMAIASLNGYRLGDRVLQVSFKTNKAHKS
Sequence of HuD RRM1 lacking the N-terminal 36 amino acids (37-117 aa) (P26378 37-117): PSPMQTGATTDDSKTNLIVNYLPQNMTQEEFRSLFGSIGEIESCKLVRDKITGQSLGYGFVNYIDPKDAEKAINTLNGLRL

recombinant rat protein-L-isoaspartyl methyltransferase (PIMT)
on-blot methylation with [3H]-AdoMet by PIMT [1]: Only the Day 3 and Day 7 samples from the original 117 amino acid fragment show above background labeling
on-blot methylation with [3H]-AdoMet by PIMT [2]: the RRM1 domain alone shows no signal above background when incubated under isoaspartylation conditions and then subjected to PIMT modification
PIMT-catalyzed [3H]-methyl incorporation from [3H]-AdoMet (autoradiography) [3]: followed by a strong increase in PIMT-mediated methylation over the seven day incubation
PIMT-catalyzed [3H]-methyl incorporation from [3H]-AdoMet (autoradiography) [4]: HuD exhibited no reactivity at Day 0
PIMT-catalyzed [3H]-methyl incorporation from [3H]-AdoMet (autoradiography) [5]: Isoaspartyl-converted synapsin and HuD were visualized by methylation with [3H]-AdoMet by PIMT

Reference: patent publication US20150232539
